One may read the IC50 as the point on the concentration scale where inhibition reaches its midpoint.

One experiment has as its system WSU-DLCL2. Description: In vitro cell proliferation assay, ADC killing of WSU-DLCL2 cells. In kind it is cell-based, human.
In a further experiment the test system is NCI-H441. Description: EdU Prolif assay, NCI-H441. It counts as cell-based. The conditions noted are these: NCI-H441 cells.
For a further experiment, the system named is BJAB. Kind of experiment: In vitro cell proliferation assay, ADC killing of BJAB cells. It counts as cell-based, human.
Another experiment has as its system Jurkat. Description: In vitro cell proliferation assay, ADC killing of Jurkat cells. It counts as cell-based.

B1: ADC1-1: Anti-Napi2b 10H1.11.4B LC K149C antibody conjugated with the Example 1 linker-drug MC-Sq-Cit-PAB Dolastatin 10 (conjugate)
VH: EVQLVESGGGLVQPGGSLRLSCAASGFSFSDFAMSWVRQAPGKGLEWVATIGRVAFHTYYPDSMKGRFTISRDNSKNTLYLQMNSLRAEDTAVYYCARHRGFDVGHFDFWGQGTLVTVSS
VL: DIQMTQSPSSLSASVGDRVTITCRSSETLVHSSGNTYLEWYQQKPGKAPKLLIYRVSNRFSGVPSRFSGSGSGTDFTLTISSLQPEDFATYYCFQGSFNPLTFGQGTKVEIKR
Turning to B1, in the experiment with WSU-DLCL2, the IC50 came out at 44.2 nM and the “WSU-DLCL2 IC50” value turned out to be 6630 ng/mL. In the experiment on NCI-H441, the 50% inhibitory concentration (IC50) amounted to 95.4 nM and the “NCI-H441 IC50” value came out at 14310 ng/mL. Besides, in the experiment with BJAB, the “BJAB IC50” value is on record as >20000 ng/mL and the concentration for half-maximal inhibition (IC50) was > 133 nM. In addition, in the experiment on Jurkat, the concentration for half-maximal inhibition (IC50) amounted to 73.6 nM and the “Jurkat IC50” value is 11040 ng/mL.

Values taken from patent publication US11104673B2, “Quaternary amine compounds and antibody-drug conjugates thereof” (priority 2014, dated 2021).
